Experimental data published in patent publication US20250136681A1.

Target: IL-2 receptor (human)
Assay: cell-based or functional assay

- EC50 of pSTAT5 increase on CD56brightCD16- NK cells (intracellular flow cytometry, human PBMCs): 60 pM
Substance: wild type recombinant IL-2 (ligand)
